Assay results from paper PMC8052502, “Enzyme kinetic and binding studies identify determinants of specificity for the immunomodulatory enzyme ScpA, a C5a inactivating bacterial protease” (Computational and Structural Biotechnology Journal, 2012).

What was measured:
[1] = molecular target: recombinant ScpA, residues 31-1032 (active Streptococcal C5a peptidase) (Streptococcus pyogenes) (UniProt P15926)
[2] = molecular target: rhC5a_(R37A) (human); assay: SPR; His-tagged C5a peptide immobilised on NTA sensor chip (30-40 RU), ScpA_(S512A) flowed over; 25 °C; 10 mM Hepes-KOH pH 7.5, 150 mM NaCl, 0.005% Tween 20, 50 μM EDTA; 1:1 Langmuir model with drifting baseline
[3] = molecular target: recombinant human C5a des Arg (rhC5adR), N-ter hexa-histidine tagged (human); assay: as above
[4] = molecular target: rhC5a_(core), N-terminal cleavage product (PN) of rhC5a, residues 1-67 (human); assay: as above
[5] = molecular target: rhC5a_(K4A,K5A) (human); assay: as above
[6] = molecular target: rhC5a_(R46A) (human); assay: as above
[7] = molecular target: rhC5a_(K12A,K14A) (human); assay: as above
[8] = molecular target: rhC5a_(K49A) (human); assay: as above
[9] = molecular target: rhC5a_(R40A) (human); assay: as above
[10] = molecular target: T1, ScpA_(S512A), active site serine to alanine mutant of recombinant Streptococcal C5a peptidase ScpA, residues … (Streptococcus pyogenes, UniProt P15926 31-1032, S512A); assay: SPR; His-tagged rhC5a immobilised on NTA sensor chip, ScpA_(S512A) flowed over; 25 °C; Hepes buffer with 350 mM NaCl; 1:1 Langmuir model; details: both partners purified
T1 construct: mimics the form released from the cell surface by SpeB; catalytic residues D130, H193, S512; also called S512A active site mutant of ScpA; source: recombinant, from plasmid pGEX ScpA_((31-1032)) mutated with QuickChange II; purified
T1 sequence: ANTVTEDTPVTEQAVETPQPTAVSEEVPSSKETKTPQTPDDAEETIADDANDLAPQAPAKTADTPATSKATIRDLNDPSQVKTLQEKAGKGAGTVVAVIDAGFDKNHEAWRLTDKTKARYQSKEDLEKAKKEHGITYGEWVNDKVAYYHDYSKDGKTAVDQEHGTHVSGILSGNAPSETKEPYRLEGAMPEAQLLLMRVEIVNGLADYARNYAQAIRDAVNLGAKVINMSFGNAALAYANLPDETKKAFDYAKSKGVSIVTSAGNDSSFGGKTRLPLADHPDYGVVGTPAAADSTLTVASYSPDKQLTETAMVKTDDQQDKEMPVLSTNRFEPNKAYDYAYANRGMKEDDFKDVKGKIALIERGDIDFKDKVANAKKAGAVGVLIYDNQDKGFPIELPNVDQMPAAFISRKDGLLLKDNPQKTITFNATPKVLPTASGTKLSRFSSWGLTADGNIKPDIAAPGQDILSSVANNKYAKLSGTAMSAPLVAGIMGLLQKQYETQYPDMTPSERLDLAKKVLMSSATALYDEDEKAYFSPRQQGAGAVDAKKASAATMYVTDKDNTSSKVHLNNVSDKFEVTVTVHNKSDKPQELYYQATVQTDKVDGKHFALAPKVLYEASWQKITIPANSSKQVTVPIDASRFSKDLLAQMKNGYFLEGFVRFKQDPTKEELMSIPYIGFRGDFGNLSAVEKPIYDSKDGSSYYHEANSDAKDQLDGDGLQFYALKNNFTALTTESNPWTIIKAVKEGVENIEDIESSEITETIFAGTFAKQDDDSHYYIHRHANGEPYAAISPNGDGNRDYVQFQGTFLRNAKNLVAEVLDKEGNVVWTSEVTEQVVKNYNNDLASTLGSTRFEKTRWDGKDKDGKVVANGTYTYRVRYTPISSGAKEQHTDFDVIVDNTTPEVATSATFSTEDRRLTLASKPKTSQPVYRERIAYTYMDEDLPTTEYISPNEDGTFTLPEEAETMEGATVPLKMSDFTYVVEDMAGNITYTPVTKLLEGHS

[11] = molecular target: T1, ScpA_(S512A), active site serine to …; assay: SPR; His-tagged rhC5a immobilised on NTA sensor chip, ScpA_(S512A) flowed over; 25 °C; Hepes buffer with 950 mM NaCl; 1:1 Langmuir model; details: both partners purified
[12] = molecular target: T1, ScpA_(S512A), active site serine to …; assay: SPR; His-tagged rhC5a immobilised on NTA sensor chip, ScpA_(S512A) flowed over; 25 °C; Hepes buffer with 750 mM NaCl; 1:1 Langmuir model; details: both partners purified
[13] = molecular target: T1, ScpA_(S512A), active site serine to …; assay: ITC; ScpA_(S512A) (18 μM) in the cell titrated with 170 μM rhC5a; 25 °C; 50 mM Hepes-KOH pH 7.5, 150 mM NaCl; one set of sites model; KD^ITC derived from KA; details: both partners purified
[14] = molecular target: T1, ScpA_(S512A), active site serine to …; assay: SPR; His-tagged C5a peptide immobilised on NTA sensor chip (30-40 RU), ScpA_(S512A) flowed over; 25 °C; 10 mM Hepes-KOH pH 7.5, 150 mM NaCl, 0.005% Tween 20, 50 μM EDTA; 1:1 Langmuir model with drifting baseline; details: both partners purified
[15] = molecular target: T1, ScpA_(S512A), active site serine to …; assay: SPR; His-tagged rhC5a immobilised on NTA sensor chip, ScpA_(S512A) flowed over; 25 °C; Hepes buffer with 550 mM NaCl; 1:1 Langmuir model; details: both partners purified
[16] = molecular target: T1, ScpA_(S512A), active site serine to …; assay: SPR; competition in solution: 40 RU HT-rhC5a_(core) immobilised on NTA chip; ScpA_(S512A) (700 nM) pre-incubated with rhC5a-HT (0-2000 nM) 1 hr on ice in SPR running buffer, then injected; Req fitted by the method of Morelock et al. to give KD^Sol; details: both partners purified

Q: “doubly BODIPY labelled His-tagged rhC5aC75 (rhC5aC75-BODIPY) (natural protein)” was tested. Which Km of cleavage of rhC5aC75-BODIPY (16-500 nM) by 180 pM ScpA, fluorescence progress curves, 25 °C, PBS with 0.1% Tween 20 [1] did it give?
A: The Km of cleavage of rhC5aC75-BODIPY (16-500 nM) by 180 pM ScpA, fluorescence progress curves, 25 °C, PBS with 0.1% Tween 20 was 185 nM.

B1: ScpA_(S512A), active site serine to alanine mutant of recombinant Streptococcal C5a peptidase ScpA, residues 31-1032 (enzyme)
chain: T1 sequence
Q: With B1 as the molecule, how does the Kd [2] read?
A: Its Kd is 217 nM.

Q: And the koff [2]?
A: The koff was 0.0176 s⁻¹.

Q: What about the kon [2] of the same molecule?
A: The kon was 81200 M⁻¹ s⁻¹.

Q: What about the Kd [3] of the same molecule?
A: The Kd was 191 nM.

Q: What about the koff [3] of the same molecule?
A: Its koff is 0.0118 s⁻¹.

Q: What about the kon [3] of the same molecule?
A: The kon was 61700 M⁻¹ s⁻¹.

Q: What about the Kd [4] of the same molecule?
A: Its Kd is 240 nM.

Q: And the koff [4]?
A: The koff was 0.0085 s⁻¹.

Q: And the kon [4]?
A: The kon was 35200 M⁻¹ s⁻¹.

Q: And the Kd [5]?
A: The Kd was 32.5 nM.

Q: What about the koff [5] of the same molecule?
A: Its koff is 0.00583 s⁻¹.

Q: And the kon [5]?
A: The kon was 180000 M⁻¹ s⁻¹.

Q: And the Kd [6]?
A: The Kd was 162 nM.

Q: What about the koff [6] of the same molecule?
A: Its koff is 0.0178 s⁻¹.

Q: And the kon [6]?
A: Its kon is 111000 M⁻¹ s⁻¹.

Q: And the Kd [7]?
A: The Kd was 25.6 nM.

Q: And the koff [7]?
A: Its koff is 0.00405 s⁻¹.

Q: And the kon [7]?
A: Its kon is 158000 M⁻¹ s⁻¹.

Q: What about the Kd [8] of the same molecule?
A: The Kd was 26 nM.

Q: What about the koff [8] of the same molecule?
A: The koff was 0.005 s⁻¹.

Q: And the kon [8]?
A: The kon was 195000 M⁻¹ s⁻¹.

Q: And the Kd [9]?
A: The Kd was 234 nM.

Q: And the koff [9]?
A: Its koff is 0.0205 s⁻¹.

Q: What about the kon [9] of the same molecule?
A: Its kon is 88000 M⁻¹ s⁻¹.

B2: recombinant human C5a, N-ter hexa-histidine tagged (rhC5a) (natural protein, UniProt P01031 678-751, looked up)
chain: TLQKKIEEIAAKYKHSVVKKCCYDGACVNNDETCEQRAARISLGPRCIKAFTECCVVASQLRANISHKDMQLGR
modifications: β-mercaptoethanol added to C27 in the refolding process
notes: numbers count on: the mature C5a (1-74); His-tagged form immobilised on the NTA chip in SPR; also called full length rhC5a; not shown: His6, N-terminal, kept
Q: B2 was tested. Which Kd [10] did it give?
A: The Kd was 63.5 nM.

Q: And the koff [10]?
A: Its koff is 0.00431 s⁻¹.

Q: What about the kon [10] of the same molecule?
A: Its kon is 68500 M⁻¹ s⁻¹.

Q: What about the Kd [11] of the same molecule?
A: Its Kd is 466 nM.

Q: What about the koff [11] of the same molecule?
A: The koff was 0.0091 s⁻¹.

Q: What about the kon [11] of the same molecule?
A: The kon was 19500 M⁻¹ s⁻¹.

Q: What about the Kd [12] of the same molecule?
A: The Kd was 256 nM.

Q: What about the koff [12] of the same molecule?
A: The koff was 0.00651 s⁻¹.

Q: What about the kon [12] of the same molecule?
A: The kon was 25600 M⁻¹ s⁻¹.

Q: What about the Kd [13] of the same molecule?
A: The Kd was 30.8 nM.

Q: And the dH [13]?
A: Its dH is -9.4 kcal/mol.

Q: What about the Kd [14] of the same molecule?
A: Its Kd is 34 nM.

Q: And the koff [14]?
A: Its koff is 0.0044 s⁻¹.

Q: What about the kon [14] of the same molecule?
A: The kon was 131000 M⁻¹ s⁻¹.

Q: And the Kd [15]?
A: The Kd was 140 nM.

Q: What about the koff [15] of the same molecule?
A: The koff was 0.0054 s⁻¹.

Q: What about the kon [15] of the same molecule?
A: The kon was 39200 M⁻¹ s⁻¹.

B3: His-tagless form of rhC5a (rhC5a-HT) (natural protein, human, UniProt P01031 678-751, looked up)
chain: B2 chain
modifications: β-mercaptoethanol added to C27 in the refolding process
notes: numbers count on: the mature C5a (1-74); also called rhC5a-HT(sol); tag-less form rhC5a; source: recombinant rhC5a (pProExHTb) treated with TEV protease (Sigma Merck) to remove the His tag; not shown: His6, N-terminal, cleaved
Q: For B3, which Kd [16] is on record?
A: The Kd was 11.1 nM.
